A short description of the data set: yeast display, Sf9 membrane polyspecificity reagent, FACS + sequencing; frameworks hold sequencing errors. The procedure, abridged: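 In a synthetic yeast display library (Saccharomyces cerevisiae BJ5465), nanobody expression was induced with galactose for 36–48 hours. FACS gates were set low and high (top ~1%) using anti-HA fluorescence for expression and streptavidin fluorescence for binding of the Sf9 membrane reagent. Each polyreactivity label is drawn from the gate of origin.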
“QVQLVDSGGGLVQAGGSHRLSCAASGRIFVAYAMGWYRQAPGKERELVAGISRGGSTYYADSVKGRFTISRDNAKNTVYLQMNSLKPEDTAVYYCATDQRVRRYDYWGQGTQVTVSS”: the “polyreactivity (PSR sort gate)” value was “low polyreactivity”. As for “QVQLVDSGGGLVQAGGSHRLSCAASGSTFRRNAMGWYRQAPGKERELVAAITRGGSTNYADSVKGRFTISRDNAKNTVYLQMNSLNPEDTAVYYCARVYLGAYRERYVYPYDYWGQGTQVTVSS”, the “polyreactivity (PSR sort gate)” value was “high polyreactivity”. To “QVQLVDSGGGLVQAGGSISLSCAASGRTFFVNAMGWYRQAPGKERELVAAITRRGGITYYADSVKGRFTISRDNAKNTVYLQMNSLKPEDTAVYYCAADRSYYPDTRTTYGYNYWGQGTQVTVSS” belongs “low polyreactivity”; to “QVQLVDSGGGLVQAGGSLPLSCAASGSILLPYAMGWYRQAPGKERELVAALSQRGGSTYYADSVKGRFTISRDNAKNTVYLQMNSLKPEDTAVYYCNAVGGEHTPSQAFAGYDYWGQGTQVTVSS”, “low polyreactivity”. Consider “QVQLVDSGGGLVQAGGSLRLICAASGITFRHYAMGWYRTAPGKERELVAAITRRGGSTRYADSVKGRFTISRDNAKNTVYLQMNSLKPEDTAVYYCNAVYWSEGDWSERRDYWGQGTQVTVSS”, for which the “polyreactivity (PSR sort gate)” value is on record as “high polyreactivity”. On to “QVQLVDSGGGLVQAGGSLRLICAASGRIFYTNAMGWYRQAPGKERELVAAIDYSDSTTYYADSVKRRYTISRDNAKNTVYLQMNSLKPEDTAVYYCAAESYLYTVTFEYWGQGTQVTVSS”, for which the “polyreactivity (PSR sort gate)” value is given as “high polyreactivity”.

As for “QVQLVDSGGGLVQAGGSLRLICAASGRTFYYYAMGWYRQAPGKERELVAGISSGVSTTYADSVKGRFTISRDNAKNTVYLQLNSLKPEDTAFYYCAARWRPNRAYIGYDYWGQGTQVTVSS”, the “polyreactivity (PSR sort gate)” value was “low polyreactivity”. Consider “QVQLVDSGGGLVQAGGSLRLICAASGSTFYHYAMGWYRQAPGKERELVAAISSSGGRTYYADSVKGRFTISRDNAKNTVYLQMNSLKPEDTAVYYCAARAKTSGSIEDYWGQGTQVTVSS”, for which the “polyreactivity (PSR sort gate)” value is recorded as “high polyreactivity”. For the sequence “QVQLVDSGGGLVQAGGSLRLRCAASGITFLGNDMGWYRQAPGKERELVAAISSGSTNYADSVKGRFTISRDNANKTVDLQMNSLKPADPAVYYCAADIRGGLSNYSPKDYDYWGQGTQVTVSS”, the “polyreactivity (PSR sort gate)” value was “low polyreactivity”. In the case of “QVQLVDSGGGLVQAGGSLRLSCAASGAIFEYYAMAWNRQAPGKERELVAAISWSGGSTYYADSVKGRFTISRDNAKNTVYLQMNSLKPEDTAVYYCAADYYLYQVYTGYDYWGQGTQVNVSS” it was “low polyreactivity”. In the case of “QVQLVDSGGGLVQAGGSLRLSCAASGFIFDVYAMGGYRQAPGKERELVAAITSGDGTNYADSVKGRFTISRDNAKNTVYFQMNSLKPEDTAVYYCAADDGVTYRGIIFSYWGQGTQVTVSS” it was “low polyreactivity”; in that of “QVQLVDSGGGLVQAGGSLRLSCAASGFIFPINAMGWYRQAPGKERELVAAITGGGSTSYADSVKGRFTISRDNAKNTVYLQMNSLKPEDTAVYYCATDRLTYTKYGYWGQGTLVTVSS”, “low polyreactivity”; in that of “QVQLVDSGGGLVQAGGSLRLSCAASGFIFVGYGMGWYRQAPGKERELVAAIDGGGSTYYADSVKGRFTISRDNAKNTVYLQMNSLKPEDTAVYYCNALPAYGWYDYDYWGQGTQVTVSS”, “low polyreactivity”. For “QVQLVDSGGGLVQAGGSLRLSCAASGFNFDQYGLGWYRQAPGKERELVASITSTGSTYYADSVKGRFTISRDNAKNTVYLQMNSLKPEDTAVYYCATDSYDGMDYWGQGTQVTVSS”, the “polyreactivity (PSR sort gate)” value is reported as “low polyreactivity”.

As to “QVQLVDSGGGLVQAGGSLRLSCAASGFTFRDYAMGWYRQAPRKERELVAAISRSGDSTYYADSVKGRFTISRDNAKNTVYLQMNSLKPEDTAVYYCNTAGFYWLHYTMDYWGQGTQVTVSS”, the “polyreactivity (PSR sort gate)” value is on record as “high polyreactivity”. To “QVQLVDSGGGLVQAGGSLRLSCAASGFTFYSYAMGWYRQAPGKERELVASITSGGSTYYADSVKGLFTISRDNGKNTVYLPMNSLNPEYTAVSYCAATRGYSQYGRVRKYGYWGLGTQVTVSS” belongs “high polyreactivity”; to “QVQLVDSGGGLVQAGGSLRLSCAASGIIFVGYAMGWYRQAPGKERELVAAITYNVGSTYYADSVKGRFTISRDNAKNTVYLQMKSLKPEDTAVYYCNADRYPFFDLLISRYGSNPYDYWGQGTQVTVSS”, “low polyreactivity”; to “QVQLVDSGGGLVQAGGSLRLSCAASGIIFWRYAMGWYRQAPGKERELVASISSSGGRTYYADSVKGRFTISRDNAKNTVYLQMNSLKPEDTAVYYCAARGPYGYDLLYYWGQGTQVTVSS”, “high polyreactivity”.

With “QVQLVDSGGGLVQAGGSLRLSCAASGIIFWYYTRGWYRQAPGKERELVASISRGGSTYYADSVKGRFTISRDNAKNTVYLQMNSLKPEDTAVYYCARRPNTGPYGNYDYWGQGTQVTVSS”, the “polyreactivity (PSR sort gate)” value is on record as “high polyreactivity”. On to “QVQLVDSGGGLVQAGGSLRLSCAASGIIYRFYAMGWYRQAPAQEREMVAAISSGGSTYYADSVKGRCTISRDTAKNTVYLQINRLKPEDTAVYYCNARVRYKRTGRYGYWGQGTQVTVSS”, for which the “polyreactivity (PSR sort gate)” value is given as “high polyreactivity”.

“QVQLVDSGGGLVQAGGSLRLSCAASGINFASYAMGWYRQAPGKEMEIVAAISRSGSSTYYADSVKGRFTISRDNAKYTVYLQMNSLKPEDTAVYYCARARSGGSHREYYWGQGTQVTVSS”: the “polyreactivity (PSR sort gate)” value was “high polyreactivity”. To “QVQLVDSGGGLVQAGGSLRLSCAASGITFGRNTMGGYRQAPGKERELVAAIDSGGNTYADSVKGRFTISRDNAKNSVYLQMNSLKPEDTAVYYCAVDGGEFSSYGYWGQGTQVTVSW” belongs “low polyreactivity”; to “QVQLVDSGGGLVQAGGSLRLSCAASGITFRRYAMGWYRQAPGKERELVASITRNGGITYYADSVKGRFTISRDNAKNTVYLQMNSLKPEDTAVYYCNAVFYYPYPADRRDYWGQGTQVTVSS”, “high polyreactivity”. With “QVQLVDSGGGLVQAGGSLRLSCAASGITFWSYAMGWYRPAPGKERELVAGISRRGGSTYYADSVKGRFTISRDNAKNTVYLQMNSLKPEDTAVYYCAARAYPTPVRSFLYTDIVYYWGQGTQVTVSS”, the “polyreactivity (PSR sort gate)” value is recorded as “high polyreactivity”.

For “QVQLVDSGGGLVQAGGSLRLSCAASGITFYFNAMGWYRQAPGKERELVAAITRGGRTNYADSVKGRFTISRDNAKNTVYLQMNSLKPEDTAFYYCAAYIYRGRETNGPDYYYWGQGTQVTVSS”, the “polyreactivity (PSR sort gate)” value is “low polyreactivity”. To “QVQLVDSGGGLVQAGGSLRLSCAASGLIFDSYDMGWYRQEPGKERELVSPIRRNGGSTYYADSVKGRFTISRDNAMYTVYLQMNSLKPEDTAVYYCAVDNSGYCGVYWVKMDYWGQGSQVTVSS” belongs “low polyreactivity”; to “QVQLVDSGGGLVQAGGSLRLSCAASGLTFQWYTMGWYRPAPGKERELVAAISSRGGSTYYADSVKGRFTISRDNAKNTVYLQMNSLKPEDTAVYYCAAVSGWEHRYDYWGQGTLVTVSS”, “high polyreactivity”; to “QVQLVDSGGGLVQAGGSLRLSCAASGLTFQYKAMGRYRHAPGKERELVATISQSGGSTYYADSVKGRFTISRDNAKNTVYLQMNSLKPEDTAVYYCAADGAWGTASYSVAFDYWGQGTQVTVSS”, “low polyreactivity”. In the case of “QVQLVDSGGGLVQAGGSLRLSCAASGLTFYYYAMGWYRQAPGKESELVSAISATGGRTYYSDSVKGRFTISRDNAKNTVYLQMNSLKPEDTAVYYCAADTPYLRRRLGMDYWGQGTQVTVSS” it was “high polyreactivity”; in that of “QVQLVDSGGGLVQAGGSLRLSCAASGLTIYAYAMGWYRQAPGKERELVAAISSGGSTSYADSVKGRFTISRDNAKNTVYLQMNSLKPEDTAVYYCAARPKSSRFFGWGYNYWGQGTQVTVSS”, “high polyreactivity”.

Values taken from the nanobody polyreactivity screen of Harvey et al. (2022).
